According to the supplement of paper PMC10567573:

B1: SNAP91 (parent)
chain: FAAPSPATTASPAKVDSSGVIDLF
B2: RTN1 (parent)
chain: VVAYLALAALSATISFRIYKSVLQ

Variants of: B1
Test: protein stability index of a GFP-peptide fusion (GPS, HEK-293T) (PSI 1-6); higher = more stable
Conditions: c terminus: a fixed tail appended
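Further: lentivirally expressed fusions sorted by FACS into six bins by GFP to DsRed ratio, PSI derived from sequencing read proportions per bin multiplied by bin number.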

Protein stability index, by site and new letter:
L23: A 3.78; K 4.12; N 4.14; F 2.29; P 3.74; M 3.25; H 4.27; C 2.79; S 4.11; Q 4.46; I 2.51; E 4.4; T 3.74; G 3.51; V 2.83; R 3.76; W 2.55; Y 3.2; D 4.69
D16: S 1.91; R 2.03; T 2.54; M 1.92; W 1.46; Y 1.53; V 2.3; K 2.17; L 2.6; Q 1.9; N 2.53; I 1.99; P 2.19
V20: H 2.72; M 2.5; A 2.45; K 2.78; N 2.77; G 2.77; T 2.51; S 2.43; R 2.63; Q 2.96; E 3.42; F 1.56; I 2.25; L 2.57; P 2.79; C 2.08; W 1.54; D 3.22; Y 2.07
I21: V 3.22; R 3.23; A 2.49; W 1.88; G 3.64; M 3.15; E 3.96; Y 2.11; Q 3.05; P 2.8; T 3.07; L 2.65; N 4.12; D 3.96; K 3.79; H 2.51; C 2.63; F 2.25; S 3.37
D22: L 2.57; E 2.46; P 2.68; K 2.11; H 1.94; G 1.75; F 2.93; Y 2.04; R 1.87; N 2.24; S 1.76; Q 2.26; T 1.73; V 1.75; A 2.03; M 2.81
G19: E 2.84; S 2.58; R 2.44; L 2.24; I 1.41; T 2.57; Q 2.69; Y 1.58; K 2.38; F 1.26; M 1.92; C 1.83; H 2.4; D 2.94; V 2.07; N 2.59; A 2.56; W 1.55; P 2.06
S17: F 2.21; R 2.27; T 2.43; V 2.17; Q 2.52; Y 2.7; W 1.63; E 2.45; D 2.55; K 2.29; M 2.16; A 2.55; N 2.78; C 1.86; P 2.39; H 2.71; L 1.96; G 2.33; I 1.7
F24: K 4.2; S 3.77; G 4.35; A 4.03; P 4.31; V 3.99; Y 2.88; Q 3.85; R 3.56; E 4.51; L 3.13; N 4.1; D 4.54; M 3.72; H 4.52; W 1.22; T 3.75; I 3.34
S18: T 2.49; K 2.46; P 2.83; E 2.72; H 2.12; R 2.11; V 2.1; M 2.06; I 1.9; A 2.29; Y 1.66; N 2.43; L 2.23; F 1.67; Q 2.49; W 1.37; C 2.1; G 2.56; D 2.97

Variants of: B2
Test: as above
Conditions: c terminus: a fixed tail appended

Protein stability index of substitutions, site by site:
L5: M 2.54; F 3.22; A 2.47; P 2.31; T 2.43; H 2.85; W 3.59; Y 1.83; G 1.95; V 1.63; D 2.42; N 2.34; I 2.01; E 1.58; K 1.89; Q 2.8; R 1.78
V1: L 2.56; H 1.68; I 2.75; D 2.2; E 3.26; C 1.99; R 2.44; T 2.62; A 3.01; K 1.61; N 2.64; G 1.96; Q 2.13; F 2.66; Y 2.03; S 2.55; M 2.21; W 1.72
A6: F 3.07; I 1.91; W 3.42; R 3.2; P 2.32; G 4.25; V 3.12; E 2.6; T 2.77; C 2.86; H 2.32; K 2.74; Y 2.9; Q 1.42; D 3.37; M 3.4; S 2.88
A3: W 2.72; D 2.01; G 1.88; K 1.08; H 2.2; E 3.04; F 2.82; L 2.06; P 2.66; V 2.16; R 2.69; C 3.67; Q 2.68; I 2.65; Y 3.35; M 2.6
Y4: N 3.01; R 3; H 2.65; Q 2.68; G 4.1; I 4.11; D 2.35; C 3.23; W 1.9; F 2.5; K 2.3; P 1.75; T 4.26; E 2.1; M 2.6; L 2.37
V2: Q 3.03; S 2.18; K 4.51; I 1.66; C 3.71; A 2.61; P 1.66; Y 3; H 4.06; L 2.63; E 2.41; R 3.31; D 2.43; M 2.66; G 1.72; W 1.31; N 2.97; F 2.9; T 3.88
A9: M 1.46; E 2.85; T 2.52; D 2.48; V 2.94; G 1.53; C 2.86; P 3.77; F 2.86; S 2.41; W 1.94; I 2.31; N 3.05; K 2.25; L 2.44; Y 3.25
L10: N 3.25; C 2.2; P 2.69; A 2.38; Y 2.83; E 2.17; F 2.31; T 2.51; K 2.42; M 3.33; H 2.74; G 3.08; W 2.44; Q 2.41; R 1.98
S11: A 3.26; C 1.28; D 3.61; F 2.3; G 2.02
L7: G 3.96; S 2.63; A 3.97; R 2.26; T 2.52; I 2.46; V 3.13; K 3.13; P 2.7; E 2.39; D 1.99; F 2.47; M 2.91; Y 3.97; W 4.04; Q 2.07; N 2.38
A8: I 3.23; F 1.68; R 2.18; K 2.2; C 1.26; H 1.75; P 3.27; S 1.95; M 4.1; Y 2.76; W 3.8; D 2.28; L 2.31; N 1.69; E 2.46; T 2.32; Q 4.3
